B1: Cell division cycle and apoptosis regulator protein 1, residues 625 to 674; numbered along this chain, Q8IX12 (parent)
chain: ISTPTHWSKLDPKTMKVNDLRKELESRALSSKGLKSQLIARLTKQLKVEE

This note sets out measurements from the Human Domainome abundance scans (Beltran et al. 2025).

± gives the uncertainty stated by the source.

In the data set the parent is B1. Briefly: abundance fitness (aPCA) (normalised: wild type 0, dead -1); higher = more abundant; growth selection in yeast, the domain comes from the species named. To be noted: Homo sapiens.
As for ISTNTHWSKLDPKTMKVNDLRKELESRALSSKGLKSQLIARLTKQLKVEE, the abundance fitness was -0.133 ± 0.076.

On to ISTSTHWSKLDPKTMKVNDLRKELESRALSSKGLKSQLIARLTKQLKVEE, for which the abundance fitness was found to be 0.15 ± 0.046.

For ISTYTHWSKLDPKTMKVNDLRKELESRALSSKGLKSQLIARLTKQLKVEE, the abundance fitness amounted to 0.012 ± 0.066.

Turning to ISTPNHWSKLDPKTMKVNDLRKELESRALSSKGLKSQLIARLTKQLKVEE, the abundance fitness was -0.42 ± 0.061.

Take ISTPGHWSKLDPKTMKVNDLRKELESRALSSKGLKSQLIARLTKQLKVEE: the abundance fitness was -0.225 ± 0.033.

Consider ISTPAHWSKLDPKTMKVNDLRKELESRALSSKGLKSQLIARLTKQLKVEE, for which the abundance fitness was 0.026 ± 0.05.

On to ISTPHHWSKLDPKTMKVNDLRKELESRALSSKGLKSQLIARLTKQLKVEE, for which the abundance fitness was -0.234 ± 0.039.

Consider ISTPSHWSKLDPKTMKVNDLRKELESRALSSKGLKSQLIARLTKQLKVEE, for which the abundance fitness is 0.042 ± 0.034.

With ISTPQHWSKLDPKTMKVNDLRKELESRALSSKGLKSQLIARLTKQLKVEE, the abundance fitness was -0.091 ± 0.063.

Regarding ISTPWHWSKLDPKTMKVNDLRKELESRALSSKGLKSQLIARLTKQLKVEE, the abundance fitness is -0.616 ± 0.053.

Turning to ISTPKHWSKLDPKTMKVNDLRKELESRALSSKGLKSQLIARLTKQLKVEE, the abundance fitness is -0.111 ± 0.033.

As to ISTPCHWSKLDPKTMKVNDLRKELESRALSSKGLKSQLIARLTKQLKVEE, the abundance fitness is -0.483 ± 0.068.

For the variant ISTPEHWSKLDPKTMKVNDLRKELESRALSSKGLKSQLIARLTKQLKVEE, the abundance fitness was -0.082 ± 0.057.

ISTPYHWSKLDPKTMKVNDLRKELESRALSSKGLKSQLIARLTKQLKVEE: the abundance fitness is -0.423 ± 0.068.

Take ISTPMHWSKLDPKTMKVNDLRKELESRALSSKGLKSQLIARLTKQLKVEE: the abundance fitness was -0.067 ± 0.031.

Consider ISTPDHWSKLDPKTMKVNDLRKELESRALSSKGLKSQLIARLTKQLKVEE, for which the abundance fitness is -0.689 ± 0.094.

Regarding ISTPPHWSKLDPKTMKVNDLRKELESRALSSKGLKSQLIARLTKQLKVEE, the abundance fitness is -0.384 ± 0.062.

Consider ISTPFHWSKLDPKTMKVNDLRKELESRALSSKGLKSQLIARLTKQLKVEE, for which the abundance fitness is -0.772 ± 0.15.

As for ISTPRHWSKLDPKTMKVNDLRKELESRALSSKGLKSQLIARLTKQLKVEE, the abundance fitness is -0.103 ± 0.039.

For the variant ISTPIHWSKLDPKTMKVNDLRKELESRALSSKGLKSQLIARLTKQLKVEE, the abundance fitness was -0.332 ± 0.069.

ISEPTHWSKLDPKTMKVNDLRKELESRALSSKGLKSQLIARLTKQLKVEE: the abundance fitness is -0.007 ± 0.033.

For ISIPTHWSKLDPKTMKVNDLRKELESRALSSKGLKSQLIARLTKQLKVEE, the abundance fitness is -0.114 ± 0.057.

Consider ISYPTHWSKLDPKTMKVNDLRKELESRALSSKGLKSQLIARLTKQLKVEE, for which the abundance fitness was 0.124 ± 0.07.

ISFPTHWSKLDPKTMKVNDLRKELESRALSSKGLKSQLIARLTKQLKVEE: the abundance fitness was -0.121 ± 0.06.

Turning to ISCPTHWSKLDPKTMKVNDLRKELESRALSSKGLKSQLIARLTKQLKVEE, the abundance fitness was -0.025 ± 0.038.

With ISRPTHWSKLDPKTMKVNDLRKELESRALSSKGLKSQLIARLTKQLKVEE, the abundance fitness is -0.076 ± 0.034.

Consider ISHPTHWSKLDPKTMKVNDLRKELESRALSSKGLKSQLIARLTKQLKVEE, for which the abundance fitness was -0.288 ± 0.083.

For ISMPTHWSKLDPKTMKVNDLRKELESRALSSKGLKSQLIARLTKQLKVEE, the abundance fitness was -0.004 ± 0.06.

Regarding ISWPTHWSKLDPKTMKVNDLRKELESRALSSKGLKSQLIARLTKQLKVEE, the abundance fitness is -0.252 ± 0.049.

Consider ISGPTHWSKLDPKTMKVNDLRKELESRALSSKGLKSQLIARLTKQLKVEE, for which the abundance fitness was -0.096 ± 0.031.

With ISAPTHWSKLDPKTMKVNDLRKELESRALSSKGLKSQLIARLTKQLKVEE, the abundance fitness is -0.203 ± 0.037.

For ISDPTHWSKLDPKTMKVNDLRKELESRALSSKGLKSQLIARLTKQLKVEE, the abundance fitness was -0.136 ± 0.046.

On to ISKPTHWSKLDPKTMKVNDLRKELESRALSSKGLKSQLIARLTKQLKVEE, for which the abundance fitness turned out to be 0.042 ± 0.052.

Regarding ISPPTHWSKLDPKTMKVNDLRKELESRALSSKGLKSQLIARLTKQLKVEE, the abundance fitness was -0.162 ± 0.055.

For the variant ISQPTHWSKLDPKTMKVNDLRKELESRALSSKGLKSQLIARLTKQLKVEE, the abundance fitness is -0.197 ± 0.057.

In the case of ISLPTHWSKLDPKTMKVNDLRKELESRALSSKGLKSQLIARLTKQLKVEE, the abundance fitness is -0.037 ± 0.041.

With IMTPTHWSKLDPKTMKVNDLRKELESRALSSKGLKSQLIARLTKQLKVEE, the abundance fitness amounted to 0.127 ± 0.049.

Consider IFTPTHWSKLDPKTMKVNDLRKELESRALSSKGLKSQLIARLTKQLKVEE, for which the abundance fitness was found to be 0.103 ± 0.073.

Consider IATPTHWSKLDPKTMKVNDLRKELESRALSSKGLKSQLIARLTKQLKVEE, for which the abundance fitness is -0.072 ± 0.033.

As to IVTPTHWSKLDPKTMKVNDLRKELESRALSSKGLKSQLIARLTKQLKVEE, the abundance fitness came to 0.06 ± 0.036.

Regarding IDTPTHWSKLDPKTMKVNDLRKELESRALSSKGLKSQLIARLTKQLKVEE, the abundance fitness worked out at 0.064 ± 0.038.

Regarding ITTPTHWSKLDPKTMKVNDLRKELESRALSSKGLKSQLIARLTKQLKVEE, the abundance fitness was found to be 0.079 ± 0.053.

In the case of IPTPTHWSKLDPKTMKVNDLRKELESRALSSKGLKSQLIARLTKQLKVEE, the abundance fitness is -0.175 ± 0.031.

For IITPTHWSKLDPKTMKVNDLRKELESRALSSKGLKSQLIARLTKQLKVEE, the abundance fitness worked out at 0.18 ± 0.071.

As to INTPTHWSKLDPKTMKVNDLRKELESRALSSKGLKSQLIARLTKQLKVEE, the abundance fitness is 0.23 ± 0.041.

Turning to IWTPTHWSKLDPKTMKVNDLRKELESRALSSKGLKSQLIARLTKQLKVEE, the abundance fitness is -0.083 ± 0.05.

Consider IKTPTHWSKLDPKTMKVNDLRKELESRALSSKGLKSQLIARLTKQLKVEE, for which the abundance fitness turned out to be 0.096 ± 0.037.

In the case of IGTPTHWSKLDPKTMKVNDLRKELESRALSSKGLKSQLIARLTKQLKVEE, the abundance fitness was -0.003 ± 0.031.

For the variant IRTPTHWSKLDPKTMKVNDLRKELESRALSSKGLKSQLIARLTKQLKVEE, the abundance fitness is -0.021 ± 0.032.

As to IHTPTHWSKLDPKTMKVNDLRKELESRALSSKGLKSQLIARLTKQLKVEE, the abundance fitness is -0.037 ± 0.047.

As to IQTPTHWSKLDPKTMKVNDLRKELESRALSSKGLKSQLIARLTKQLKVEE, the abundance fitness is -0.06 ± 0.068.

Consider ICTPTHWSKLDPKTMKVNDLRKELESRALSSKGLKSQLIARLTKQLKVEE, for which the abundance fitness was found to be 0.029 ± 0.047.
